This experiment has as its target T1, recombinant human FcRn (Sino Biological) (human, UniProt P55899 24-297; P61769 21-119).
T1 construct: the two chains are those of natural FcRn
As to the kind of experiment: ELISA at pH 6.0: plate coated with recombinant human FcRn, antibody titrated, goat anti-human Fc-HRP, OD650.

T1 sequence (P55899 24-297 limits assumed, chain 1 of 2): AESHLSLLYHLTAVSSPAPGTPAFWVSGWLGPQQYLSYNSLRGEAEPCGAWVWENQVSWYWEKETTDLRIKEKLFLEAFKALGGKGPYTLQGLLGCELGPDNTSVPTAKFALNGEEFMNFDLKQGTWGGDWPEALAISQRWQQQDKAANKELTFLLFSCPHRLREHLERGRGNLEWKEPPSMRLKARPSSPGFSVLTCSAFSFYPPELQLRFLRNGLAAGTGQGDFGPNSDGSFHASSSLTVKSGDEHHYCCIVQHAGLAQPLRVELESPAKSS
T1 sequence (P61769 21-119 limits assumed, chain 2 of 2): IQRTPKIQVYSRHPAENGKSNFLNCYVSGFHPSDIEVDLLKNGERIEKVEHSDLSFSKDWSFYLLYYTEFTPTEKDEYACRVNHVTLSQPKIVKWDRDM
Experimental: FcRn binding was evaluated using an enzyme linked immunoassay (ELISA). Briefly, 96-well ELISA plates were coated with of recombinant human FcRn (Sino Biological, Inc, Beijing, China) in 1× PBS (pH 6.0) coating buffer. Subsequently, the plates were washed and blocked with ELISA blocking buffer. […] After washing to remove unbound antibodies, the bound antibodies were detected with horseradish peroxidase (HRP) conjugated goat anti-human Fc-specific polyclonal antibody (Jackson ImmunoResearch, West Grove, PA). After washing to remove unbound detection antibody, a slow kinetic substrate solution of tetramethylbenzidine (TMB) was added to the wells where color develops in proportion to the amount of testing samples. The optical density (OD) of the color was measured at 650 nm and was used for determination of the amount of testing samples bound to FcRn. Detectable binding of antibodies over the range of test concentrations was analyzed using the one-site binding, nonlinear regression analysis with GraphPad Prism.

B1: Anti-EGFR Mab No. 3, L234A, L235A, L328C (antibody, human IgG1, L234A L235A)
heavy: QVQLQQSGAEVKKPGSSVKVSCKASGYTFTNYYIYWVRQAPGQGLEWIGGINPTSGGSNFNEKFKTRVTITADESSTTAYMELSSLRSEDTAFYFCTRQGLWFDSDGRGFDFWGQGTTVTVSSASTKGPSVFPLAPSSKSTSGGTAALGCLVKDYFPEPVTVSWNSGALTSGVHTFPAVLQSSGLYSLSSVVTVPSSSLGTQTYICNVNHKPSNTKVDKRVEPKSCDKTHTCPPCPAPEAAGGPSVFLFPPKPKDTLMISRTPEVTCVVVDVSHEDPEVKFNWYVDGVEVHNAKTKPREEQYNSTYRVVSVLTVLHQDWLNGKEYKCKVSNKACPAPIEKTISKAKGQPREPQVYTLPPSREEMTKNQVSLTCLVKGFYPSDIAVEWESNGQPENNYKTTPPVLDSDGSFFLYSKLTVDKSRWQQGNVFSCSVMHEALHNHYTQKSLSLSPGK
light: DIQMTQSPSSLSASVGDRVTITCRSSQNIVHSNGNTYLDWYQQTPGKAPKLLIYKVSNRFSGVPSRFSGSGSGTDFTFTISSLQPEDIATYYCFQYSHVPWTFGQGTKLQITREVAAPSVFIFPPSDEQLKSGTASVVCLLNNFYPREAKVQWKVDNALQSGNSQESVTEQDSKDSTYSLSSTLTLSKADYEKHKVYACEVTHQGLSSPVTKSFNRGEC
notes: Fc variant; also called Anti-EGFR Ab No. 3 L234A, L235A, L328C; triple mutant
Consider B1, for which the binding result is on record as “binds”.

B2: Anti-EGFR Mab No. 3, L328C (antibody, human IgG1)
heavy: not shown
light: B1 light
notes: Fc variant; also called Anti-EGFR Ab No. 3 L328C; single mutant
With B2, the binding result is recorded as “binds”.

Source of the values: US20240058466A1 (TAE LIFE SCIENCES, published 2024).
